Source: publication doi:10.1101/047555
Where no end group is shown, it is not given here. fluorescein = fluorescein-aminocaproic acid; Ahx = NCCCCCC(=O)O

Molecular target: EP12, C-terminal region of MamE containing only the PDZ domains (Magnetospirillum magneticum AMB-1)
Experiment: fluorescence polarisation

{fluorescein-Ahx}-WSQEMEDWFWQMPLSG [PDZ1* peptide (fluorescein-labelled, phage-derived ligand of MamE PDZ1)]
fold tighter binding than the PDZ2 peptide: 10 fold
